From patent US20240254219A1 (University of California, published 2024)

Key:
[1] = target: T1, recombinant mouse LRP6 extracellular domain (mouse, UniProt O88572 20-1370); assay: ELISA on recombinant mouse LRP6 extracellular domain
T1 construct: extracellular domain; also called mouse LRP6 ectodomain
T1 sequence (looked up): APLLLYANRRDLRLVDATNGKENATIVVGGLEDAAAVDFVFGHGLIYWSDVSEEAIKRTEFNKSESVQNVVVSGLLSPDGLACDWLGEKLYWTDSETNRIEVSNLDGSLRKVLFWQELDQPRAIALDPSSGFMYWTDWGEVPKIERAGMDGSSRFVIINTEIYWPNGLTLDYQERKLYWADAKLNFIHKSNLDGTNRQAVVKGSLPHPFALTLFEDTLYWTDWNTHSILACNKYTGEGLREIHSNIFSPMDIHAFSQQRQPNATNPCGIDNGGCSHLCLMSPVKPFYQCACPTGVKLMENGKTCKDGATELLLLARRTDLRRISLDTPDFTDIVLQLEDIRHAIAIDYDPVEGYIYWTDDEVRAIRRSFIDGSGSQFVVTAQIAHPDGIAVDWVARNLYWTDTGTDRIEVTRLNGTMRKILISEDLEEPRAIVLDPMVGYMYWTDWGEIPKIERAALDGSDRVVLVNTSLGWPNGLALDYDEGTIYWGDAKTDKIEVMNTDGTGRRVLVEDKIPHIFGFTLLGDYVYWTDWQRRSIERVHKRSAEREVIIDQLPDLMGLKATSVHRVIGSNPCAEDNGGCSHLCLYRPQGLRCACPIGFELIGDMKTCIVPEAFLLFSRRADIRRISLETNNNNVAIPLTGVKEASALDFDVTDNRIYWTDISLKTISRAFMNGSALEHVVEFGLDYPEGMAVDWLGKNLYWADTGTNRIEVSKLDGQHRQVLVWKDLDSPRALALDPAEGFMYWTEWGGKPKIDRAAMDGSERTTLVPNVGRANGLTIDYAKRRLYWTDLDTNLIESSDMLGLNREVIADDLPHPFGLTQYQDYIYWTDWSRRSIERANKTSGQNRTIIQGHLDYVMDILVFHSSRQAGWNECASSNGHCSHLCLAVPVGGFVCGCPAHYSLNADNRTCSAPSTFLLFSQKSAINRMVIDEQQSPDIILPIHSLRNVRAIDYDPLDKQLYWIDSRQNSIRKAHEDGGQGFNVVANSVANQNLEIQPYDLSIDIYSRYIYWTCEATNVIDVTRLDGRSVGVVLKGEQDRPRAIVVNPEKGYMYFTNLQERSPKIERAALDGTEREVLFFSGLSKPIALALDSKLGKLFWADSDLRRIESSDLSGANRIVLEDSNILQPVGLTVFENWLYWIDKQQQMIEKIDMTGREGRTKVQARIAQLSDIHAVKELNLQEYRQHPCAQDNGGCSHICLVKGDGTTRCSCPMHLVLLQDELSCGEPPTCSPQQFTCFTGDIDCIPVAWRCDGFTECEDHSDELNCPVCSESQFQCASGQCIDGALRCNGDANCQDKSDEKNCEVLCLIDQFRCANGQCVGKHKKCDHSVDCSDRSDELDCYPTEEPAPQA

[2] = target: T2, human LRP6 (low density lipoprotein receptor-related protein 6), full length on HEK293 cells (human, UniProt O75581 20-1613); assay: cell-based or functional assay
[3] = target: T2, human LRP6 (low density lipoprotein …); assay: flow cytometry on HEK293 cells; apparent KD by curve fitting of MFI
Protocol: (§1) HEK293 cells were transfected with LRP6 expression plasmid and incubated with 66 or E34N19 scFv-phage for 1 hour. E34N19 was identified previously as a Wnt antagonist binding to the P3E3P4E4 domain (Lee et al., 2018). The E34N19 IgG was simultaneously added as a competitor. Bound phages were detected by sequential incubation of mouse anti-fd IgG and PE-labeled anti-mouse IgG. FIG. 7A is a graph showing the dissociation curve of the 66 antibody. HEK293 cells were incubated with varying concentrations of 66 IgG, and the binding was analyzed by flow cytometry. […] As a positive control, the E34N19E IgG competes with the E34N19E scFv-phage.
(§2) The apparent KD of antibodies was analyzed by FACS as described (Lee et al., 2018). Briefly, cells were trypsinized, washed, and resuspended in FACS buffer (PBS, 1% FBS). Antibodies serially diluted in FACS buffer were incubated with target cells (3×10⁵ cells/tube) overnight at 4° C. Cells were washed, incubated with Alexa Fluor® 647-labeled goat anti-human IgG (Jackson ImmunoResearch). 1 hour post incubation, cells were washed in PBS and analyzed using a BD Accuri C6 flow cytometer (BD Biosciences). Median Fluorescence Intensity (MFI) values were analyzed by curve fitting (GraphPad) to determine the affinity.

[4] = target: T2, human LRP6 (low density lipoprotein …); assay: flow cytometry titration of 66 IgG on HEK293 cells
Protocol: as §1, §2

[5] = target: T3, LRP6 double mutant (K662A/K684A) on HEK293 cells (human, UniProt O75581 20-1613); assay: flow cytometry on transfected HEK293 cells
T3 construct: whole, on cells; Made by site-directed mutagenesis of the LRP6 construct in pCMV-Entry and transfected into HEK293 cells
Protocol: FIG. 1F is a graph showing fine epitope mapping by alanine scanning of LRP6 and the effect of the alanine substitutions on binding of the 66 antibody. LRP6 single mutants and the double mutant (K662A/K684A) were separately transfected into HEK293 cells. An anti-LRP6 scFv-Fc fusion that binds to the LRP6-P1 domain was used as a control to confirm cell surface expression of LRP6. Binding of the 66 antibody was determined by flow cytometry, and median fluorescence intensity (MFI) values were normalized against MFI of the P1-binding scFv-Fc.
To map the binding site further, the binding of the 66 antibody to LRP6 was modeled using a homology modeling-predicted structure for the 66 Fv and two known crystal structures of LRP6 (3S8Z and 4A0P: FIGS. 8A and 8B, respectively). Several potential 66 contact sites were identified on LRP6. Alanine scan mutagenesis was performed at those sites. Alanine mutants of LRP6 ectodomain were constructed using QuikChange Site-Directed Mutagenesis Kit (Agilent Technologies) according to the manufacturer's protocol. Binding of the 66 IgG to these LRP6 mutants was analyzed by flow cytometry. K662A and K684A single mutations caused a significant loss of 66 binding (FIG. 1F).

B1: 66 IgG (Wnt-agonist human monoclonal antibody 66) (antibody, V domains shown)
VH: QVQLLQSGGGLVQPGGSLRLSCAASGFTFSTYAMSWVRQAPGKGLEWVSTIGPSGSSTYYAYADSVKGRFTISRDNYKNMLYLQMNSLRAEDTAVYYCAKEGPNSGYFDFDYWGQGTLVTVSS
VL: EIVLTQSPSSLSASVGDRVTITCRASQSISTYLNWYQQKPGKAPKVLIYAASSLQSGVPSRISGSGSGTDFTLTISSLQPEDFATYYCQQSYSIPLTFGGGTKLEIK
notes: also called 66 antibody; agonist 66 IgG
With B1 the binding result [1] was “binds”, the “EC50, STF reporter on HEK293 cells without Wnt ligands” value [2] was 13.4 nM and the “EC50, Wnt1-mediated beta-catenin signaling (STF reporter) with RSPO2 (5 nM)” value [2] was 1.8 nM. The “EC50, Wnt3a-mediated beta-catenin signaling (STF reporter) with RSPO2 (5 nM)” value [2] was 4.8 nM, the Kd [3] was ~5 nM and the “EC50 (read off the curve)” value [4] was ~5 nM. B1: no binding [5].
